Assay results taken from US20070141062A1 (published 2007).
Changes are numbered by the printed parent chain.

T1: WT-LP (wild-type large pocket fragment of RB, amino acids 379-928) (UniProt P06400 379-928)
T1 construct: range 379-928; Expressed by cotransfection in HEK 293 cells; Construct from Knudsen et al., 1996; also called Rb large pocket fragment
T1 sequence (looked up): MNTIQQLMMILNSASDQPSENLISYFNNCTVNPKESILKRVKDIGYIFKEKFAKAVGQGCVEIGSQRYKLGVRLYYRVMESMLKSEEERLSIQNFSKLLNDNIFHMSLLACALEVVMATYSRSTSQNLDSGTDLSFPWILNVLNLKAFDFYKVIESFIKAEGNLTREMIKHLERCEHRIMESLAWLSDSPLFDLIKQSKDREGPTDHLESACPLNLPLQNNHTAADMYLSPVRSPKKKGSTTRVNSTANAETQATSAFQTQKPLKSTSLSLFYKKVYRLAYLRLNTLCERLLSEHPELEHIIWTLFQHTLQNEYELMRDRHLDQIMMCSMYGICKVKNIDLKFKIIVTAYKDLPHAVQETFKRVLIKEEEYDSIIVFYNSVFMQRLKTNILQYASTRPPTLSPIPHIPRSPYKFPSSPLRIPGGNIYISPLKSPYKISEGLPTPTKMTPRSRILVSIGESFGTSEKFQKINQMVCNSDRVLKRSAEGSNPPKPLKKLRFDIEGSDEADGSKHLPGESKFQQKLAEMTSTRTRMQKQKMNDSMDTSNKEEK

T2: PSM2T-LP (double T821A/T826A large pocket mutant of RB) (UniProt P06400 379-928)
T2 construct: range 379-928; Expressed by cotransfection in HEK 293 cells
T2 sequence (looked up): T1 sequence (looked up) with T443A, T448A

T3: Retinoblastoma protein (Rb), endogenous in the cells used (UniProt P06400 2-928)
T3 construct: also called endogenous Rb; total Rb
T3 sequence (looked up): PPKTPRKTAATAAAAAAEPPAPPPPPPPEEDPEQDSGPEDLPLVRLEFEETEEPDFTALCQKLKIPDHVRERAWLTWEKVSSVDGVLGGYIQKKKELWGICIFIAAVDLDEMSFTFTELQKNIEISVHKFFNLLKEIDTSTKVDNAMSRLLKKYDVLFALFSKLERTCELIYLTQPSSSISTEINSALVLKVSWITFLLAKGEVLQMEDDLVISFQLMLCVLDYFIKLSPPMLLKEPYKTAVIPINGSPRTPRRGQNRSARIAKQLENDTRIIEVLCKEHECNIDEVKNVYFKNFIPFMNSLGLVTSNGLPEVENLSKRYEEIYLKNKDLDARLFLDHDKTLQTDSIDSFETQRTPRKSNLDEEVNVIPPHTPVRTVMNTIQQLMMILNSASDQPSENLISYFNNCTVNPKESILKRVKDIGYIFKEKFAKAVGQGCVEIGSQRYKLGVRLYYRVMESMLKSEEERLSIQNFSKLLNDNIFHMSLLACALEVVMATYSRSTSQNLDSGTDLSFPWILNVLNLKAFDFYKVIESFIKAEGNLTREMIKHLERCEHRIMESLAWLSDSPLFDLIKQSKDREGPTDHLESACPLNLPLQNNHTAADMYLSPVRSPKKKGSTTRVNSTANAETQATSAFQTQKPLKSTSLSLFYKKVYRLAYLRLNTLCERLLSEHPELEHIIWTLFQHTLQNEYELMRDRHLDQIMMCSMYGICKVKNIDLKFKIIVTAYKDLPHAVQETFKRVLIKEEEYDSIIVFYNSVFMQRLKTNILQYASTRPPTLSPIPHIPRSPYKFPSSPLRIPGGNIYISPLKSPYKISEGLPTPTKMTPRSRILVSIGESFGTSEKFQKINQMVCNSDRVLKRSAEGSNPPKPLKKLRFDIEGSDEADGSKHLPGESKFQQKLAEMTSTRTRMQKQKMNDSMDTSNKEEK

B1: V5-epitope tagged pp32 (pp32V5) (other, not shown: small tags and cut ends)
chain: MEMGRRIHLELRNRTPSDVKELVLDNSRSNEGKLEGLTDEFEELEFLSTINVGLTSIANLPKLNKLKKLELSDNRVSGGLEVLAEKCPNLTHLNLSGNKIKDLSTIEPLKKLENLKSLDLFNCEVTNLNDYRENVFKLLPQLTYLDGYDRDDKEAPDSDAEGYVEGLDDEEEDEDEEEYDEDAQVVEDEEDEDEEEEGEEEDVSGEEEEDEEGYNDGEVDDEEDEEELGEEERGQKRKREPEDEGEDDD
notes: Expressed by transient transfection in HEK 293 (or NIH 3T3) cells and tested in cell extracts; also called V5-tagged pp32
B2: pp32r2V5 (V5-epitope tagged pp32r2, ANP32D) (other, UniProt O95626 1-131, looked up, not shown: small tags and cut ends)
chain: MEMGKWIHLELRNRTPSDVKELFLDNSQSNEGKLEGLTDEFEELELLNTINIGLTSIANLPKLNKLKKLELSSNRASVGLEVLAEKCPNLIHLNLSGNKIKDLSTIEPLKKLENLESLDLFTCEVTNLNNY
notes: Overexpressed in HEK 293 cells
B3: pp32Δ201-360V5 (other, not shown: small tags and cut ends)
chain: MEMGRRIHLELRNRTPSDVKELVLDNSRSNEGKLEGLTDEFEELEFLSTINVGLTSIANLPKLNKLFNCEVTNLNDYRENVFKLLPQLTYLDGYDRDDKEAPDSDAEGYVEGLDDEEEDEDEEEYDEDAQVVEDEEDEDEEEEGEEEDVSGEEEEDEEGYNDGEVDDEEDEEELGEEERGQKRKREPEDEGEDDD
notes: also called pp32D201-360V5
B4: pp32r1V5 (V5-epitope tagged pp32r1, ANP32C) (other, UniProt O43423 1-234, looked up, not shown: small tags and cut ends)
chain: MEMGRRIHSELRNRAPSDVKELALDNSRSNEGKLEALTDEFEELEFLSKINGGLTSISDLPKLKLRKLELRVSGGLEVLAEKCPNLTHLYLSGNKIKDLSTIEPLKQLENLKSLDLFNCEVTNLNDYGENVFKLLLQLTYLDSCYWDHKEAPYSDIEDHVEGLDDEEEGEHEEEYDEDAQVVEDEEGEEEEEEGEEEDVSGGDEEDEEGYNDGEVDGEEDEEELGEEERGQKRK
notes: as for B2

Key:
[1] = target: T1, WT-LP (wild-type large pocket fragment …); assay: cotransfection in HEK 293, IP with anti-V5, western with anti-Rb (851)
Source text: (§1) Equal amounts of cell extracts were precipitated with anti-V5 antibody. Upper panel, the presence of WT-LP or PSM2T-LP in immunoprecipitates was probed by western blot analysis using anti-Rb antibody (851). The right-hand arrow indicates the position of the Rb large pocket fragment. The lower band present in all three lanes is immunoglobulin heavy chain, which serves as a loading control. Middle panel, anti-V5 immunoprecipitates were subjected to western blot analysis with anti-V5 antibody to confirm pp32V5 immunoprecipitation. Lower panel, cell extracts were subjected to western blotting with anti-Rb antibody (851) to confirm expression of WT-LP and PSM2T-LP.
(§2) Immunoprecipitation and Immunoblotting-1×10⁶ HEK 293 cells were seeded onto a T-150 flask. 24 hours later, cells were transfected with 15 μg of the indicated plasmids. 48 hrs post transfection, cells were harvested, washed twice with cold PBS, and lysed with MPER (Pierce) containing 1× protease inhibitor cocktail (HALT, Pierce). Lysates were centrifuged at 4° C. for 30 minutes at 16,000 g to remove particulate material. The supernatant was precleared for 2 hours with protein A-agarose (Roche). The pre-cleared cell lysates were mixed with the indicated antibodies and protein A- or protein G-agarose (Roche) and incubated at 4° C. overnight. […] The eluted materials were subsequently analyzed by immunoblotting with the indicated antibodies. […]

[2] = target: T2, PSM2T-LP (double T821A/T826A large …); assay: as above
Source text: as §1, §2

[3] = target: T3, Retinoblastoma protein (Rb), endogenous …; assay: IP with anti-Rb (G99-2005) from transfected HEK 293 extracts, anti-V5 western
Protocol: Immunoprecipitation and Immunoblotting-1×10⁶ HEK 293 cells were seeded onto a T-150 flask. 24 hours later, cells were transfected with 15 μg of the indicated plasmids. 48 hrs post transfection, cells were harvested, washed twice with cold PBS, and lysed with MPER (Pierce) containing 1× protease inhibitor cocktail (HALT, Pierce). Lysates were centrifuged at 4° C. for 30 minutes at 16,000 g to remove particulate material. The supernatant was precleared for 2 hours with protein A-agarose (Roche). The pre-cleared cell lysates were mixed with the indicated antibodies and protein A- or protein G-agarose (Roche) and incubated at 4° C. overnight. The next day, the reaction mixture was washed three times with cold PBS, boiled for 3 minutes and eluted in 2×SDS buffer. The eluted materials were subsequently analyzed by immunoblotting with the indicated antibodies.
While pp32 inhibits transformation, pp32r1 (ANP32C) and pp32r2 (ANP32D), both highly homologous to pp32 at the protein level (87.7% and 89.3% respectively) are tumorigenic (Kadkol, S. S., Brody, J. R., Pevsner, J., Bai, J., and Pasternack, G. R. (1999) Nature Med. 5, 275-279). Therefore, the possibility of an interaction between these family members and Rb was explored. pp32r1 and r2 were V5-epitope tagged and overexpressed in HEK 293 cells. HEK 293 cells were transfected with pp32V5, pp32r1V5, pp32r2V5 or LacZV5 expression vectors as indicated. Equal amounts of cell extracts were precipitated with anti-Rb (G99-2005) antibody and analysed by western blotting with anti-V5 antibody. Equal amounts of cell lysates were immunoprecipitated with anti-Rb and immunoblotted with anti-V5.

Row | Binder | binding result [1] | binding result [2] | binding result [3]
1 | B1 | binds | no binding | –
2 | B2 | – | – | no binding
3 | B3 | – | – | no binding
4 | B4 | – | – | no binding
